From paper PMC4067148 (Biochemistry, 2014)

B1: wild-type AcrB (natural protein, Escherichia coli)
chain: MPNFFIDRPIFAWVIAIIIMLAGGLAILKLPVAQYPTIAPPAVTISASYPGADAKTVQDTVTQVIEQNMNGIDNLMYMSSNSDSTGTVQITLTFESGTDADIAQVQVQNKLQLAMPLLPQEVQQQGVSVEKSSSSFLMVVGVINTDGTMTQEDISDYVAANMKDAISRTSGVGDVQLFGSQYAMRIWMNPNELNKFQLTPVDVITAIKAQNAQVAAGQLGGTPPVKGQQLNASIIAQTRLTSTEEFGKILLKVNQDGSRVLLRDVAKIELGGENYDIIAEFNGQPASGLGIKLATGANALDTAAAIRAELAKMEPFFPSGLKIVYPYDTTPFVKISIHEVVKTLVEAIILVFLVMYLFLQNFRATLIPTIAVPVVLLGTFAVLAAFGFSINTLTMFGMVLAIGLLVDDAIVVVENVERVMAEEGLPPKEATRKSMGQIQGALVGIAMVLSAVFVPMAFFGGSTGAIYRQFSITIVSAMALSVLVALILTPALCATMLKPIAKGDHGEGKKGFFGWFNRMFEKSTHHYTDSVGGILRSTGRYLVLYLIIVVGMAYLFVRLPSSFLPDEDQGVFMTMVQLPAGATQERTQKVLNEVTHYYLTKEKNNVESVFAVNGFGFAGRGQNTGIAFVSLKDWADRPGEENKVEAITMRATRAFSQIKDAMVFAFNLPAIVELGTATGFDFELIDQAGLGHEKLTQARNQLLAEAAKHPDMLTSVRPNGLEDTPQFKIDIDQEKAQALGVSINDINTTLGAAWGGSYVNDFIDRGRVKKVYVMSEAKYRMLPDDIGDWYVRAADGQMVPFSAFSSSRWEYGSPRLERYNGLPSMEILGQAAPGKSTGEAMELMEQLASKLPTGVGYDWTGMSYQERLSGNQAPSLYAISLIVVFLCLAALYESWSIPFSVMLVVPLGVIGALLAATFRGLTNDVYFQVGLLTTIGLSAKNAILIVEFAKDLMDKEGKGLIEATLDAVRMRLRPILMTSLAFILGVMPLVISTGAGSGAQNAVGTGVMGGMVTATVLAIFFVPVFFVVVRRRFSRKNEDIEHSHTVDHH
B2: AcrB_(W895G) (natural protein, Escherichia coli)
chain: MPNFFIDRPIFAWVIAIIIMLAGGLAILKLPVAQYPTIAPPAVTISASYPGADAKTVQDTVTQVIEQNMNGIDNLMYMSSNSDSTGTVQITLTFESGTDADIAQVQVQNKLQLAMPLLPQEVQQQGVSVEKSSSSFLMVVGVINTDGTMTQEDISDYVAANMKDAISRTSGVGDVQLFGSQYAMRIWMNPNELNKFQLTPVDVITAIKAQNAQVAAGQLGGTPPVKGQQLNASIIAQTRLTSTEEFGKILLKVNQDGSRVLLRDVAKIELGGENYDIIAEFNGQPASGLGIKLATGANALDTAAAIRAELAKMEPFFPSGLKIVYPYDTTPFVKISIHEVVKTLVEAIILVFLVMYLFLQNFRATLIPTIAVPVVLLGTFAVLAAFGFSINTLTMFGMVLAIGLLVDDAIVVVENVERVMAEEGLPPKEATRKSMGQIQGALVGIAMVLSAVFVPMAFFGGSTGAIYRQFSITIVSAMALSVLVALILTPALCATMLKPIAKGDHGEGKKGFFGWFNRMFEKSTHHYTDSVGGILRSTGRYLVLYLIIVVGMAYLFVRLPSSFLPDEDQGVFMTMVQLPAGATQERTQKVLNEVTHYYLTKEKNNVESVFAVNGFGFAGRGQNTGIAFVSLKDWADRPGEENKVEAITMRATRAFSQIKDAMVFAFNLPAIVELGTATGFDFELIDQAGLGHEKLTQARNQLLAEAAKHPDMLTSVRPNGLEDTPQFKIDIDQEKAQALGVSINDINTTLGAAWGGSYVNDFIDRGRVKKVYVMSEAKYRMLPDDIGDWYVRAADGQMVPFSAFSSSRWEYGSPRLERYNGLPSMEILGQAAPGKSTGEAMELMEQLASKLPTGVGYDWTGMSYQERLSGNQAPSLYAISLIVVFLCLAALYESGSIPFSVMLVVPLGVIGALLAATFRGLTNDVYFQVGLLTTIGLSAKNAILIVEFAKDLMDKEGKGLIEATLDAVRMRLRPILMTSLAFILGVMPLVISTGAGSGAQNAVGTGVMGGMVTATVLAIFFVPVFFVVVRRRFSRKNEDIEHSHTVDHH
B3: AcrB_(L886G) (natural protein, Escherichia coli)
chain: MPNFFIDRPIFAWVIAIIIMLAGGLAILKLPVAQYPTIAPPAVTISASYPGADAKTVQDTVTQVIEQNMNGIDNLMYMSSNSDSTGTVQITLTFESGTDADIAQVQVQNKLQLAMPLLPQEVQQQGVSVEKSSSSFLMVVGVINTDGTMTQEDISDYVAANMKDAISRTSGVGDVQLFGSQYAMRIWMNPNELNKFQLTPVDVITAIKAQNAQVAAGQLGGTPPVKGQQLNASIIAQTRLTSTEEFGKILLKVNQDGSRVLLRDVAKIELGGENYDIIAEFNGQPASGLGIKLATGANALDTAAAIRAELAKMEPFFPSGLKIVYPYDTTPFVKISIHEVVKTLVEAIILVFLVMYLFLQNFRATLIPTIAVPVVLLGTFAVLAAFGFSINTLTMFGMVLAIGLLVDDAIVVVENVERVMAEEGLPPKEATRKSMGQIQGALVGIAMVLSAVFVPMAFFGGSTGAIYRQFSITIVSAMALSVLVALILTPALCATMLKPIAKGDHGEGKKGFFGWFNRMFEKSTHHYTDSVGGILRSTGRYLVLYLIIVVGMAYLFVRLPSSFLPDEDQGVFMTMVQLPAGATQERTQKVLNEVTHYYLTKEKNNVESVFAVNGFGFAGRGQNTGIAFVSLKDWADRPGEENKVEAITMRATRAFSQIKDAMVFAFNLPAIVELGTATGFDFELIDQAGLGHEKLTQARNQLLAEAAKHPDMLTSVRPNGLEDTPQFKIDIDQEKAQALGVSINDINTTLGAAWGGSYVNDFIDRGRVKKVYVMSEAKYRMLPDDIGDWYVRAADGQMVPFSAFSSSRWEYGSPRLERYNGLPSMEILGQAAPGKSTGEAMELMEQLASKLPTGVGYDWTGMSYQERLSGNQAPSLYAISLIVVFGCLAALYESWSIPFSVMLVVPLGVIGALLAATFRGLTNDVYFQVGLLTTIGLSAKNAILIVEFAKDLMDKEGKGLIEATLDAVRMRLRPILMTSLAFILGVMPLVISTGAGSGAQNAVGTGVMGGMVTATVLAIFFVPVFFVVVRRRFSRKNEDIEHSHTVDHH
B4: AcrB_(L886G/E893G) (natural protein, Escherichia coli)
chain: MPNFFIDRPIFAWVIAIIIMLAGGLAILKLPVAQYPTIAPPAVTISASYPGADAKTVQDTVTQVIEQNMNGIDNLMYMSSNSDSTGTVQITLTFESGTDADIAQVQVQNKLQLAMPLLPQEVQQQGVSVEKSSSSFLMVVGVINTDGTMTQEDISDYVAANMKDAISRTSGVGDVQLFGSQYAMRIWMNPNELNKFQLTPVDVITAIKAQNAQVAAGQLGGTPPVKGQQLNASIIAQTRLTSTEEFGKILLKVNQDGSRVLLRDVAKIELGGENYDIIAEFNGQPASGLGIKLATGANALDTAAAIRAELAKMEPFFPSGLKIVYPYDTTPFVKISIHEVVKTLVEAIILVFLVMYLFLQNFRATLIPTIAVPVVLLGTFAVLAAFGFSINTLTMFGMVLAIGLLVDDAIVVVENVERVMAEEGLPPKEATRKSMGQIQGALVGIAMVLSAVFVPMAFFGGSTGAIYRQFSITIVSAMALSVLVALILTPALCATMLKPIAKGDHGEGKKGFFGWFNRMFEKSTHHYTDSVGGILRSTGRYLVLYLIIVVGMAYLFVRLPSSFLPDEDQGVFMTMVQLPAGATQERTQKVLNEVTHYYLTKEKNNVESVFAVNGFGFAGRGQNTGIAFVSLKDWADRPGEENKVEAITMRATRAFSQIKDAMVFAFNLPAIVELGTATGFDFELIDQAGLGHEKLTQARNQLLAEAAKHPDMLTSVRPNGLEDTPQFKIDIDQEKAQALGVSINDINTTLGAAWGGSYVNDFIDRGRVKKVYVMSEAKYRMLPDDIGDWYVRAADGQMVPFSAFSSSRWEYGSPRLERYNGLPSMEILGQAAPGKSTGEAMELMEQLASKLPTGVGYDWTGMSYQERLSGNQAPSLYAISLIVVFGCLAALYGSWSIPFSVMLVVPLGVIGALLAATFRGLTNDVYFQVGLLTTIGLSAKNAILIVEFAKDLMDKEGKGLIEATLDAVRMRLRPILMTSLAFILGVMPLVISTGAGSGAQNAVGTGVMGGMVTATVLAIFFVPVFFVVVRRRFSRKNEDIEHSHTVDHH
B5: AcrB_(E893G/W895G) (natural protein, Escherichia coli)
chain: MPNFFIDRPIFAWVIAIIIMLAGGLAILKLPVAQYPTIAPPAVTISASYPGADAKTVQDTVTQVIEQNMNGIDNLMYMSSNSDSTGTVQITLTFESGTDADIAQVQVQNKLQLAMPLLPQEVQQQGVSVEKSSSSFLMVVGVINTDGTMTQEDISDYVAANMKDAISRTSGVGDVQLFGSQYAMRIWMNPNELNKFQLTPVDVITAIKAQNAQVAAGQLGGTPPVKGQQLNASIIAQTRLTSTEEFGKILLKVNQDGSRVLLRDVAKIELGGENYDIIAEFNGQPASGLGIKLATGANALDTAAAIRAELAKMEPFFPSGLKIVYPYDTTPFVKISIHEVVKTLVEAIILVFLVMYLFLQNFRATLIPTIAVPVVLLGTFAVLAAFGFSINTLTMFGMVLAIGLLVDDAIVVVENVERVMAEEGLPPKEATRKSMGQIQGALVGIAMVLSAVFVPMAFFGGSTGAIYRQFSITIVSAMALSVLVALILTPALCATMLKPIAKGDHGEGKKGFFGWFNRMFEKSTHHYTDSVGGILRSTGRYLVLYLIIVVGMAYLFVRLPSSFLPDEDQGVFMTMVQLPAGATQERTQKVLNEVTHYYLTKEKNNVESVFAVNGFGFAGRGQNTGIAFVSLKDWADRPGEENKVEAITMRATRAFSQIKDAMVFAFNLPAIVELGTATGFDFELIDQAGLGHEKLTQARNQLLAEAAKHPDMLTSVRPNGLEDTPQFKIDIDQEKAQALGVSINDINTTLGAAWGGSYVNDFIDRGRVKKVYVMSEAKYRMLPDDIGDWYVRAADGQMVPFSAFSSSRWEYGSPRLERYNGLPSMEILGQAAPGKSTGEAMELMEQLASKLPTGVGYDWTGMSYQERLSGNQAPSLYAISLIVVFLCLAALYGSGSIPFSVMLVVPLGVIGALLAATFRGLTNDVYFQVGLLTTIGLSAKNAILIVEFAKDLMDKEGKGLIEATLDAVRMRLRPILMTSLAFILGVMPLVISTGAGSGAQNAVGTGVMGGMVTATVLAIFFVPVFFVVVRRRFSRKNEDIEHSHTVDHH

Experiments:
native gel or EMSA [1] = target: the molecule itself; assay: native gel or EMSA
native gel or EMSA [2] = target: the molecule itself; assay: native gel or EMSA; remark: listed apart in the source

| Protein | KX (trimer association constant, mole fraction) (native gel or EMSA [1]) | stoichiometry N (native gel or EMSA [2]) |
| --- | --- | --- |
| B1 | 1.6e+09 |  |
| B2 | 2.2e+07 | 3 |
| B3 | 1.4e+07 | 3 |
| B4 | 1e+07 | 3 |
| B5 | 8.6e+06 | 3 |
